According to paper doi:10.1101/2025.02.07.637169, “Structural basis of flagellar rod assembly on the FliPQR protein-export channel” (bioRxiv, 2025):

T1: FliR-His (Salmonella enterica serovar Typhimurium, UniProt P54702 1-264)
T1 construct: FliR of Salmonella enterica serovar Typhimurium; One FliR subunit stands in the FliP5-FliQ4-FliR1 complex; source: Salmonella SJW1368 carrying pMKM10001 (pTrcCES3/ FliP + FliQ + FliR-His); purified as FliPQR-His complex (LMNG, Ni-NTA, SEC), reconstituted in peptidisc; not shown: His tag (10 residues), C-terminal, kept
T1 sequence: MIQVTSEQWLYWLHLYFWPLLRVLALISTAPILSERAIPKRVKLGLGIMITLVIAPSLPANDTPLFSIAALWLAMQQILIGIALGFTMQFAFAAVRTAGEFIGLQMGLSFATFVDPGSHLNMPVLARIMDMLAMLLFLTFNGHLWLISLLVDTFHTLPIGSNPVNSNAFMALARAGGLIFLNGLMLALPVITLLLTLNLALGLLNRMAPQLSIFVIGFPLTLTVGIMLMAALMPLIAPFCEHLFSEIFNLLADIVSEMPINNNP

B1: FliP (natural protein)
chain: QLPGLISQPLAGGGQSWSLSVQTLVFITSLTFLPAILLMMTSFTRIIIVFGLLRNALGTPSAPPNQVLLGLALFLTFFIMSPVIDKIYVDAYQPFSEQKISMQEALDKGAQPLRAFMLRQTREADLALFARLANSGPLQGPEAVPMRILLPAYVTSELKTAFQIGFTIFIPFLIIDLVIASVLMALGMMMVPPATIALPFKLMLFVLVDGWQLLMGSLAQSFYS
notes: FliP of Salmonella enterica serovar Typhimurium, mature protein after cleavage of the signal peptide (residues 1-21; cleavage between Ala-21 and Gln-22); residue numbers count on the precursor; Five FliP subunits stand in the FliP5-FliQ4-FliR1 complex; also called mature FliP; FliP^A (Mol-A); source: Salmonella SJW1368 carrying pMKM10001 (pTrcCES3/ FliP + FliQ + FliR-His); purified as FliPQR-His …

Legend:
Assay in all cases: cryo-EM structure; FliPQR-His complex purified from Salmonella membranes and reconstituted in a peptidisc, detergent-free (20 mM Tris-HCl pH 8.0, 150 mM NaCl), fluorinated Fos-Choline 0, 1.0 or 2.0 mM added before grid preparation; single-particle analysis, C1 symmetry, 3.0 Å; closed form
FliR-His = target: T1, FliR-His; conditions: both partners purified
[1] = target: the molecule itself
FliP = target: B1; conditions: both partners purified

Row | Binder | binding result (FliR-His) | stoichiometry N [1] | binding result (FliP)
1 | B1 | binds | 5 subunits | 
2 | FliQ (natural protein, FliQ of Salmonella enterica serovar Typhimurium; Four FliQ subunits stand in the FliP5-FliQ4-FliR1 complex; source: Salmonella SJW1368 carrying pMKM10001 (pTrcCES3/ FliP + FliQ + FliR-His); purified as FliPQR-His complex (LMNG, Ni-NTA, SEC), reconstituted in peptidisc) MTPESVMMMGTEAMKVALALAAPLLLVALITGLIISILQAATQINEMTLSFIPKIVAVFIAIIVAGPWMLNLLLDYVRTLFSNLPYIIG | binds |  | binds
